Values of other authors in paper PMC10979101.

Target: Gab2 503-524 (Homo sapiens) (UniProt Q9UQC2)
Sequence of UniProt Q9UQC2 (Q9UQC2 503-524): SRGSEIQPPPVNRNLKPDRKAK

Kd: 1.7 µM
Substance: Grb2 C-SH3 C-SH3 (from UniProt P62993)
